Assay results from the supplement of paper PMC9170038.

Test system: MS2 coat protein
Experiment: apparent KD of MS2 coat protein; designed switch direction (-1 OFF switch, 1 ON switch): -1; higher = weaker reporter binding
Outline: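 Designed RNA switches sharing common flanks were transcribed on Illumina chips by stalled E. coli RNA polymerase. They were titrated with SNAP-549-labelled MS2 coat protein, from 0.7 or 1.5 nM doubling to 3 µM, in Tris-HCl pH 7.5 buffer with KCl, MgCl2, BSA, DTT, tRNA and Tween-20. Titrations ran without input, with 200 uM small-molecule ligand, or with an oligonucleotide input. The apparent KD of each design is the median over its clusters, after curve-fitting of normalised cluster fluorescence.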

[1] = input ligand: microRNA oligo, concentration not stated
[2] = Eterna round: R95, input ligand: FMN 200 uM
[3] = Eterna round: R95, input ligand: microRNA oligo, concentration not stated
[4] = Eterna round: R95, input ligand: none

Row | Sequence | apparent KD of MS2 coat protein (input ligand: FMN 200 uM) | apparent KD of MS2 coat protein [1] | apparent KD of MS2 coat protein (input ligand: none) | apparent KD of MS2 coat protein [2] | apparent KD of MS2 coat protein [3] | apparent KD of MS2 coat protein [4]
1 | CCACGUCCGUACGUAUACUUGUCUCCUGAAAGAAAGGGCACAUGAGGAUCACCCAUGUUUUUGCUCGUCUUAUGAGC [JR_Sensorv2_tov2_Sub714] (Eterna round: R96, puzzle: Sensor v2, turn-off variant 2) | 20.4 nM | 40.9 nM | 22.8 nM |  |  | 
2 | GAAAAGGUAGGAUAUACGAAAAAAAAGGGUAGAAAAAAAAAACAUGAGGAUCACCCAUGUAGAAGGACCAAAAG [salish99_ex2_r3_059] (puzzle: Exclusion 2) |  |  |  | 134 nM | 26.6 nM | 13.7 nM
3 | AUUUAACAUGAGGAUCACCCAUGUGAGGAUAUGUAAAUUUUAAACAAAUAGGAAAUGAACAGAAGGCACACCGG [JR_Exclusion1_Sub006] (puzzle: Exclusion 1) |  |  |  | 61.7 nM | 41.6 nM | 37 nM
4 | GAAACGGGUGCACCUCAGUCACAUGAGGAUCACCCAUGUUCUGAGGAUAUGCAUCCAAACGGAACGCAGAAGGCGGAACGUAAC [Beisoner] (Eterna round: R96, puzzle: Exclusion NG 3) | 14.6 nM | 14 nM | 16.4 nM |  |  | 
5 | GCAUCGUAAGGAUAUCAGCCGGUGGUAUACCGAAACAGGGUUGAGAAGGUACAUGAGGAUCACCCAUGUGAUUU [Eternabot (L2) Solution 37] (Eterna round: R97, puzzle: Exclusion 4) | 203 nM |  | 58.6 nM |  |  | 
6 | ACAUGAGGAUCACCCAUGUUUUUCGGGUACUCUUUUUACAGCAAGGAUAUGCAUUAUUUUUUUACGCAGAAGGUGCUUUACGUC [JR_ExcNG3_Sub066] (Eterna round: R96, puzzle: Exclusion NG 3) |  | 116 nM |  |  |  | 
7 | GUGAAGUGAGGAUAUAUGAGAGAGGCUGAACCGGACGAGAAGUAGAAGGCACAUGAGGAUCACCCAUGUAAGGG [JR_Exclu4_Sub024] (puzzle: Exclusion 4) |  |  |  | 293 nM | 255 nM | 372 nM
8 | AGGUGACAUGAGGAUCACCCAUGUAAGGAUAUACGGUUAGUGGAGAGUUGGAAGAGAGGUAGAAGGUACGGAGC [JR_Exclu1_Sub059] (puzzle: Exclusion 1) |  |  |  |  | 197 nM | 
9 | GUAGAGUCAGGAUAUACGAGAUCGAAAGAUCAGCGAUCCUUACAUGAGGAUCACCCAUGUAGAAGGGACUCUAC [Omei mod 11 to Eli's favorate candidate (ch.parushev)] (Eterna round: R97, puzzle: Exclusion 2) | 254 nM |  | 24.3 nM |  |  | 
10 | UCGCUCCGUGUAGGAUAUCGCCGUACCACUCGGCGAGAAGGACAUGAGGAUCACCCAUGUAUGUUAUUAUCACGUGUGGCGCGC [Design 52] (Eterna round: R96, puzzle: Exclusion NG 1) | 33.5 nM | 19 nM | 18.7 nM |  |  | 
11 | CUGAGCAGACGGAGAUCCCACAUGAGGAUCACCCAUGUCUCAAAAGCUUUUUGCUUGUCUUAUUCUCCUCUGUUCUC [Arorza] (puzzle: Sensor v3, turn-off variant 1) |  |  |  | 13.9 nM | 100 nM | 11.4 nM
12 | UUUAGUUCAGGAUAUGUAGAAAUUAACAUGAGGAUCACCCAUGUCGAUCCUGAAUUAACUACAGAAGGGAACAUUU [Mod of Brourd 6 - Jieux - Exclusion 5] (Eterna round: R97, puzzle: Exclusion 5) | 50 nM |  | 14.2 nM |  |  | 
13 | CCUAAGAAAGGAUAUACACCGGUGGGCCGCUGAAUUCAGCAACAUGAGGAUCACCCAUGUAGAAGGUUUAUGGG [Veteso] (Eterna round: R96, puzzle: Exclusion 2) | 346 nM | 147 nM | 262 nM |  |  | 
14 | GCUAGACAUGUCAGGAUAUGCUGUACCUUGGUACAGCAGAAGGGACAUGAGGAUCACCCAUGUGCCUAUCUAGC [JL-BMX4-4.05] (Eterna round: R97, puzzle: Brourd's mod of Exclusion 4) | 308 nM |  | 43.6 nM |  |  | 
15 | GUGCGGUGAGGAUAUACGUAGGUGAAAAUCUGUGUGUUCCUACAUGAGGAUCACCCAUGUAGAAGGCAUGGCAC [LRO-Excl2-13] (puzzle: Exclusion 2) |  |  |  |  | 90.5 nM | 
16 | GUGUGCACGCUGCGAUCCUACAUGAGGAUCACCCAUGUGGUCUGGUGGCGUGGGUCACCGGACUUGGCUCGUCUUGC [salish99_S_TOV1_R5_072] (Eterna round: R97, puzzle: Sensor, turn-off variant 1) | 35.6 nM |  | 35.8 nM |  |  | 
17 | AAUUCACAUGAGGAUCACCCAUGUCAGGAUAUGGUUUCACGUGUUUCGGUGCGUGAGGCCAGAAGGGACAGCUA (puzzle: Exclusion 1) |  |  |  |  | 49.7 nM | 

Row | Sequence | apparent KD of MS2 coat protein (input ligand: FMN 200 uM) | apparent KD of MS2 coat protein [1] | apparent KD of MS2 coat protein (input ligand: none) | apparent KD of MS2 coat protein [2] | apparent KD of MS2 coat protein [3] | apparent KD of MS2 coat protein [4]
18 | UAACAAGCUUAAAGAUCCUACAUGAGGAUCACCCAUGUGCUCGUCUUAUAACGUACUGUGACGAAAGUCACGGUACG [JL TOV1 3.14] (Eterna round: R97, puzzle: Sensor, turn-off variant 1) | 348 nM |  | 395 nM |  |  | 
19 | GAUCUACAUGAGGAUCACCCAUGUGAGGAUAUUUAGACCAACGCUCUAGCUGUUGAUGGAAGAAGGCACCACCG [Eternabot (L2) Solution 56] (Eterna round: R97, puzzle: Exclusion 1) | 25.4 nM |  | 26.2 nM |  |  | 
20 | AUGAUACAUGAGGAUCACCCAUGUUAGGAUAUACGCAUGCAUGCAUGCAUGCAUGCAAGUAGAAGGAACCAUGC [Design #2] (Eterna round: R97, puzzle: Exclusion 1) | 56.8 nM |  | 48.2 nM |  |  | 
21 | UGCCUACAUGAGGAUCACCCAUGUGAGGAUAUCCUGCGAGGAUCAAAAGAUCCUCGUGGGAGAAGGCGCCUGGA [Omei Ex1 B5] (Eterna round: R97, puzzle: Exclusion 1) | 19.9 nM |  | 16.2 nM |  |  | 
22 | GUUAGACAUGAGGAUCACCCAUGUGAGGAUAUGAUGCGAAUAAUGAAUGAAGAAAGCAUCAGAAGGCACAUAUG [Mat - Mod of Hyphema D29] (puzzle: Exclusion 1) |  |  |  | 375 nM | 296 nM | 221 nM
23 | GCUAUUAGAGGAUAUACAUGAGGAUCACCCAUGUGGUCAAGUCGGUGCCAACUGUUAGGUAGAAGGCUGGAGCC [Eternabot (L1) Solution 76] (Eterna round: R97, puzzle: Exclusion 3) | 44.8 nM |  | 49.7 nM |  |  | 
24 | GGAUCUUGGGUCAGGAUAUGCUGAUAGUUAUGUCAGCAGAAGGGACAUGAGGAUCACCCAUGUGCUUGGUUUUG [Magic-17] (puzzle: Brourd's mod of Exclusion 4) |  |  |  |  | 13.1 nM | 
25 | AGCUGUGGCCGAGGAUAUACACAUGAGGAUCACCCAUGUAGGUGCGGAUACUCGCACCAAUAAGUGUAGAAGGCGGUCUCAGCA [Eli eng2 - 057] (Eterna round: R96, puzzle: Exclusion NG 2) | 14.6 nM | 13.2 nM | 19.2 nM |  |  | 
26 | ACAAUGUUAGGAUAUCUGACAAUUAGUCUCGACUAGUCGAAAGAGAAGGAACAUGAGGAUCACCCAUGUAGAUC [EX4 #73] (Eterna round: R97, puzzle: Exclusion 4) | 144 nM |  | 37.4 nM |  |  | 
27 | UUUGCAAGCUUUAGAUCCCACAUGAGGAUCACCCAUGUUGCUGCCGUGAGGUAGCUUUUAACUAAUGCUCGUCUUAU [JL TOV1 3.45] (Eterna round: R97, puzzle: Sensor, turn-off variant 1) | 88.2 nM |  | 163 nM |  |  | 
28 | GAUUAUGCGAGCUUUAGGGACAUGAGGAUCACCCAUGUUCGUCUUAUUAAUCUAGGUACGCUAACAUACCUAAAUCU [JMF 39] (puzzle: Sensor v3, turn-off variant 1) |  |  |  | 20.3 nM | 34.3 nM | 20.6 nM
29 | UUAAAUCAUGUAGGAUAUGCGUGGCGAAGCUAUGCAGAAGGACAUGAGGAUCACCCAUGUGCUUGCGUCCGCGUACGGAUGCUA [JL ENG1 1.22] (Eterna round: R96, puzzle: Exclusion NG 1) | 195 nM | 94 nM | 104 nM |  |  | 
30 | CCGCUGCAAGGAUAUACUUGCGGUGGUGCUCGAGUUCUUCUACUUGAGGAUCACCCAAGUAGAAGGUGCAAAAC [jl-ex2.4.57 ViennaUCT mod] (Eterna round: R97, puzzle: Exclusion 2) | 34.4 nM |  | 17.1 nM |  |  | 
31 | UGAUCAGACCGAGGAUAUACAUGUAGGACGCACGUGAGUGCGUCCAUUACAUGAGGAUCACCCAUGUAGAAGGCGGUCUGAUCU [JL ENG2 1.93] (Eterna round: R96, puzzle: Exclusion NG 2) | 331 nM | 133 nM | 157 nM |  |  | 
32 | ACAAGCUUGUAAUGAUUGAACAUGAGGAUCACCCAUGUAAAUGGAAGAACCAAUUGGAUAAGAUAAACUCGUCUUAU [JR_STOV1_Sub004] (Eterna round: R97, puzzle: Sensor, turn-off variant 1) | 107 nM |  | 114 nM |  |  | 
33 | UAUAUAUAGUAAGGAUAUGUAUUAAUUUUACAAACAGAAGGUACUGACAUGAGGAUCACCCAUGUUUUAGUGUGGGCAUGUAGA [JMF's solution 89] (Eterna round: R96, puzzle: Exclusion NG 1) |  | 45.9 nM |  |  |  | 
34 | UAUUAACAAGCAAGAUCCUACAUGAGGAUCACCCAUGUGCUCGUCUUGUAAGGUACUGUGACGAAAGUCACGGUACC [Sensor 3, v1 - 71] (puzzle: Sensor v3, turn-off variant 1) |  |  |  | 22 nM | 232 nM | 18.9 nM
